From publication PMC4713133 (Molecular Biology of the Cell, 2016)

Legend:
Sec8-Myc = Sec8-Myc (rat, UniProt Q62824 1-975); experiment: pull-down
Sec5-Myc = Sec5-Myc (rat, UniProt O54921 1-924); experiment: pull-down
Sec5-Myc, sequence (O54921 whole entry): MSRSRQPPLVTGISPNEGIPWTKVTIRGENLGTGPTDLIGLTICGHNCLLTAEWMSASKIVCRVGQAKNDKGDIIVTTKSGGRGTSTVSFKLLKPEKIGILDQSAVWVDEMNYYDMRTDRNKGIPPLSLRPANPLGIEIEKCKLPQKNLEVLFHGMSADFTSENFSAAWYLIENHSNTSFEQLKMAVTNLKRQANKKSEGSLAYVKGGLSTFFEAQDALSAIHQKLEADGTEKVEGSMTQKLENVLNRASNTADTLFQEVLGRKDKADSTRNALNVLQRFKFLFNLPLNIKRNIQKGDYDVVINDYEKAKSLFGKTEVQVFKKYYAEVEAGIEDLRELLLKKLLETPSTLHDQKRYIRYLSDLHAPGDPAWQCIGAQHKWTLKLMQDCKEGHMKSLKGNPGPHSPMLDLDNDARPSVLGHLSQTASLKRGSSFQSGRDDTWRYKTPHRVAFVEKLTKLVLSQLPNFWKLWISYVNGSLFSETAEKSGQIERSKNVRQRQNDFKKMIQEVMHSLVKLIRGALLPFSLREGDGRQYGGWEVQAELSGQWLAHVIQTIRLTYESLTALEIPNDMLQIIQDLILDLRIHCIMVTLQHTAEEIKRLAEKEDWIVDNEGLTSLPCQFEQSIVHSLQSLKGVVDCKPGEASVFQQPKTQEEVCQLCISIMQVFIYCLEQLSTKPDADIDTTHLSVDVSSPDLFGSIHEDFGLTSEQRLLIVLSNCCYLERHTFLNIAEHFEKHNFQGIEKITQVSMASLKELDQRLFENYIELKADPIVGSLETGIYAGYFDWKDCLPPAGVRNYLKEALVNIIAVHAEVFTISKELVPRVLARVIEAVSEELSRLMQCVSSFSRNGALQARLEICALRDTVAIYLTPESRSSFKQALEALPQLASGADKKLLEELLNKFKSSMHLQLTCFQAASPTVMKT

Sec8-Myc, sequence (Q62824 whole entry): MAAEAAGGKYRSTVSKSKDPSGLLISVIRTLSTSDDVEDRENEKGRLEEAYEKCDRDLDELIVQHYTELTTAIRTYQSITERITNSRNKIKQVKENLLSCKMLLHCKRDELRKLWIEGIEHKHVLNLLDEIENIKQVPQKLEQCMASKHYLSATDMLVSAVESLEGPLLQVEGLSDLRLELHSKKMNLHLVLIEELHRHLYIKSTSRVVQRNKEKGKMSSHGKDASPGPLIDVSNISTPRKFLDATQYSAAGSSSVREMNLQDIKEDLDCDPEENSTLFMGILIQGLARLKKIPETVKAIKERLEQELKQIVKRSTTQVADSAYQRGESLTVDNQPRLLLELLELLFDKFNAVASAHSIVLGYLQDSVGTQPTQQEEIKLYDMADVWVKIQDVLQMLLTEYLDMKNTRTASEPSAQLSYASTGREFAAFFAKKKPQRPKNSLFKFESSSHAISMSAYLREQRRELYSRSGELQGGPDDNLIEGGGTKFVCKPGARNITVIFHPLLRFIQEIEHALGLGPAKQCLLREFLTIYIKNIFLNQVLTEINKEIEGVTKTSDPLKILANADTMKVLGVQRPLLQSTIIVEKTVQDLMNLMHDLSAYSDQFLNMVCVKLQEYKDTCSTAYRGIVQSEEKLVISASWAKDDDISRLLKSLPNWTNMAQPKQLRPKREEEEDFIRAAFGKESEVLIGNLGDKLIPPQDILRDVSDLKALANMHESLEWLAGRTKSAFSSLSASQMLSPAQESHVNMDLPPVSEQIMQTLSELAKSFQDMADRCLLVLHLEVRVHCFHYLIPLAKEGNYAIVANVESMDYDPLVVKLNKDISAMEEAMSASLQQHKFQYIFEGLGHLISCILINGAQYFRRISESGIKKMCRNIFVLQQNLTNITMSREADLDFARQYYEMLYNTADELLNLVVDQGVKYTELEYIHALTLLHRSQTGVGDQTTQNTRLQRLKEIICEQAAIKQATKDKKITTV

B1: Arl13b-GST (natural protein)
chain: not shown
B1: binds (Sec8-Myc); binds (Sec5-Myc).
